{"source": "patent US20110318339A1", "about": "(FABRUS, published 2011)", "binders": {"B1": {"name": "Fab VH5-51_IGHD5-18*01>3_IGHJ4*01 G100K/G104T & V3-4_IGLJ1*01 (Fab, V domains shown)", "VH": "EVQLVQSGAEVKKPGESLKISCKGSGYSFTSYWIGWVRQMPGKGLEWMGIIYPGDSDTRYSPSFQGQVTISADKSISTAYLQWSSLKASDTAMYYCARRKYSYTYDYFDYWGQGTLVTVSS", "VL": "QTVVTQEPSFSVSPGGTVTLTCGLSSGSVSTSYYPSWYQQTPGQAPRTLIYSTNTRSSGVPDRFSGSILGNKAALTITGAQADDESDYYCVLYMGSGISYVFGTGTKVTVL", "notes": "Fab made in E. coli: VH on CH1 with His6 and Flag tags (Plasmid A), VL on lambda CL (Plasmid E); also called H: KT & L: wt"}, "B2": {"name": "Fab VH5-51_IGHD5-18*01>3_IGHJ4*01 G100K/G104T G24T/S28R/G35V & V3-4_IGLJ1*01 M94R/S96M (Fab, V domains shown)", "VH": "B1 VH with G24T, S28R, G35V", "VL": "B1 VL with M94R, S96M", "notes": "Fab made in E. coli: VH on CH1 with His6 and Flag tags (Plasmid A), VL on lambda CL (Plasmid E); also called H: KT TRV & L: RM; KT TRV-V3-4 RM"}, "B3": {"name": "Fab VH5-51_IGHD5-18*01>3_IGHJ4*01 G100K/G104T S28R & V3-4_IGLJ1*01 (Fab, V domains shown)", "VH": "B1 VH with S28R", "VL": "B1 VL", "notes": "Fab made in E. coli: VH on CH1 with His6 and Flag tags (Plasmid A), VL on lambda CL (Plasmid E); also called H: KT S28R & L: wt"}, "B4": {"name": "Fab H:APFF & L:NDH (Fab, V domains shown)", "VH": "QVQLVQSGAEVKKPGASVKVSCKASGYTFTSYYMHWVRQAPGQGLEWMGIINPSGGSTSYAQKFQGRVTMTRDTSTSTVYMELSSLRSEDTAVYYCAREEYAPFSAEYFQFWGQGTLVTVSS", "VL": "EIVLTQSPATLSLSPGERATLSCRASQNVDHYLAWYQQKPGQAPRLLIYDASNRATGIPARFSGSGSGTDFTLTISSLEPEDFAVYYCQQRSNWPPWTFGQGTKVEIKR", "notes": "Fab, kappa light chain; also called VH1-46_IGHD6-6*01_IGHJ1*01 S102A/S103P/S104F/H111F & L6_IGKJ1*01 S28N/S30D/S31H"}, "B5": {"name": "Fab H:APFF ELTH & L6_IGKJ1*01 (Fab, V domains shown)", "VH": "B4 VH with I51E, N52L, S54T, G56H", "VL": "not shown", "notes": "Fab, kappa light chain; also called H:APPF ELTH; H:APFF ELTH & L:wt"}, "B6": {"name": "Fab H:APFF G56A & L:NDH (Fab, V domains shown)", "VH": "B4 VH with G56A", "VL": "B4 VL", "notes": "Fab, kappa light chain"}, "B7": {"name": "Fab H:APFF LTH & L6_IGKJ1*01 (Fab, V domains shown)", "VH": "B4 VH with N52L, S54T, G56H", "VL": "not shown", "notes": "Fab, kappa light chain; also called H:APFF LTH & L:wt"}, "B8": {"name": "Fab H:APFF LTH & L:NDH (Fab, V domains shown)", "VH": "B4 VH with N52L, S54T, G56H", "VL": "B4 VL", "notes": "Fab, kappa light chain"}, "B9": {"name": "Fab H:APFF LTH & L:NDH LG (Fab, V domains shown)", "VH": "B4 VH with N52L, S54T, G56H", "VL": "B4 VL with S52L, A55G", "notes": "Fab, kappa light chain"}}, "key": {"[1]": {"molecular_target": "T1, recombinant human DLL4 (Cat# 1506-D4/CF, R&D Systems) (human, UniProt Q9NR61 27-529)", "T1 construct": "Bought protein; also called hDLL4; rHuman DLL4", "experiment": "ELISA, DLL4 coated, Fab 2.22 nM", "protocol": "(§1) The plate was blocked by adding 1% BSA in Tris-buffered Saline Tween (TBST) and incubating for 1 hour at room temperature followed by washing 2 times with 150 μl TBST. A Fab antibody was serially diluted in 1% BSA in PBS. A 50 μl aliquot of each serial dilution was added, in triplicate, to each well and the plate was incubated for 1 hour at room temperature followed by washing 2 times with TBST. 50 μl of either goat anti-human kappa HRP conjugated secondary antibody (Cat # A7164-1 mL, Sigma-Aldrich) or goat anti-human lambda HRP conjugated secondary antibody (Cat # L1645-1 ml, Sigma-Aldrich), diluted 1:1000 in 1% BSA in PBS, was added to each well and the plate was incubated for 30 minutes at room temperature followed by washing 3 times with 200 μl TBST. Finally, 50 μl TMB one-component reagent (Cat # TMBW-1000-01, BioFax) was added and allowed to develop for 2 minutes at room temperature. The reaction was immediately halted by the addition of 50 μl 0.5M H₂SO₄ and the absorbance at 450 nm was measured using an ELISA plate reader."}, "[2]": {"molecular_target": "T1, recombinant human DLL4 (Cat# …)", "experiment": "ELISA, DLL4 coated, Fab 6.67 nM", "protocol": "as §1"}, "[3]": {"molecular_target": "T1, recombinant human DLL4 (Cat# …)", "experiment": "ELISA, DLL4 coated, Fab 12.5 nM", "protocol": "(§2) In this example, an ELISA binding assay was used to assess the dose-dependent binding of Fab antibodies to recombinant human DLL4 and recombinant mouse DLL4.\nas §1"}, "[4]": {"molecular_target": "T1, recombinant human DLL4 (Cat# …)", "experiment": "ELISA, DLL4 coated, Fab 20 nM", "protocol": "as §1"}, "[5]": {"molecular_target": "T1, recombinant human DLL4 (Cat# …)", "experiment": "ELISA, DLL4 coated, Fab 0.74 nM", "protocol": "as §1"}, "[6]": {"molecular_target": "T1, recombinant human DLL4 (Cat# …)", "experiment": "ELISA, DLL4 coated, Fab 50 nM", "protocol": "as §2, §1"}, "[7]": {"molecular_target": "T1, recombinant human DLL4 (Cat# …)", "experiment": "ELISA, DLL4 coated, Fab 100 nM", "protocol": "as §2, §1"}, "[8]": {"molecular_target": "T1, recombinant human DLL4 (Cat# …)", "experiment": "ELISA, DLL4 coated, Fab 25 nM", "protocol": "as §1"}, "[9]": {"molecular_target": "T1, recombinant human DLL4 (Cat# …)", "experiment": "SPR (ProteOn), hDLL4 amine-coupled on chip", "protocol": "In this example, the binding affinities of selected anti-DLL4 Fabs to recombinant human DLL4 (hDLL4, Cat# 1506-D4/CF, R&D Systems) were analyzed using Surface Plasmon Resonance (SPR) (Biosensor Tools, Salt Lake City, Utah). The Fabs analyzed include germline-derived antibodies and germline-modified DLL4 antibodies. Recombinant hDLL4 was immobilized on a SPR chip using amine coupling at three different surface densities. The Fabs were serially diluted 3-fold, with an initial concentration of 1 μM. Binding studies were run on a ProteOn system using a GLM sensor chip in 10 mM HEPES, pH 7.4, 150 mM NaCl, 0.01% Tween-20, and 0.1 mg/ml BSA at 25° C. The response data from each surface was globally fit to determine the binding constants."}, "[10]": {"molecular_target": "T2, Recombinant Human DLL4 (Cat# 1506-D4/CF, R&D Systems) (human, UniProt Q9NR61 27-529)", "T2 construct": "Bought protein; also called rHuman DLL4; hDLL4", "experiment": "ELISA, DLL4 coated"}, "[11]": {"molecular_target": "T2, Recombinant Human DLL4 (Cat# …)", "experiment": "ELISA, DLL4 coated, estimated from dose-dependent binding", "protocol": "as §1"}}, "note": "Substitutions are numbered along the chain they refer to. Names may count otherwise.", "data": [{"binder": "B1", "values": [{"measurement": "ELISA absorbance at 450 nm", "setting": "[1]", "result": 0.014, "unit": "A450"}, {"measurement": "ELISA absorbance at 450 nm", "setting": "[2]", "result": 0.042, "unit": "A450"}, {"measurement": "ELISA absorbance at 450 nm", "setting": "[3]", "result": 0.18, "unit": "A450"}, {"measurement": "ELISA absorbance at 450 nm", "setting": "[4]", "result": 0.018, "unit": "A450"}, {"measurement": "ELISA absorbance at 450 nm", "setting": "[5]", "result": 0.019, "unit": "A450"}, {"measurement": "ELISA absorbance at 450 nm", "setting": "[6]", "result": 0.18, "unit": "A450"}, {"measurement": "ELISA absorbance at 450 nm", "setting": "[7]", "result": 0.18, "unit": "A450"}, {"measurement": "ELISA absorbance at 450 nm", "setting": "[8]", "result": 0.16, "unit": "A450"}]}, {"binder": "B2", "values": [{"measurement": "ELISA absorbance at 450 nm", "setting": "[1]", "result": 0.028, "unit": "A450"}, {"measurement": "ELISA absorbance at 450 nm", "setting": "[2]", "result": 0.062, "unit": "A450"}, {"measurement": "ELISA absorbance at 450 nm", "setting": "[4]", "result": 0.122, "unit": "A450"}, {"measurement": "ELISA absorbance at 450 nm", "setting": "[5]", "result": 0.006, "unit": "A450"}, {"measurement": "Kd", "setting": "[9]", "result": 40.3, "unit": "nM"}, {"measurement": "koff", "setting": "[9]", "result": 0.101, "unit": "s⁻¹"}, {"measurement": "kon", "setting": "[9]", "result": "2.53e+06", "unit": "M⁻¹ s⁻¹"}]}, {"binder": "B3", "values": [{"measurement": "ELISA absorbance at 450 nm", "setting": "[1]", "result": 0, "unit": "A450"}, {"measurement": "ELISA absorbance at 450 nm", "setting": "[2]", "result": 0.003, "unit": "A450"}, {"measurement": "ELISA absorbance at 450 nm", "setting": "[3]", "result": 0.18, "unit": "A450"}, {"measurement": "ELISA absorbance at 450 nm", "setting": "[4]", "result": 0.009, "unit": "A450"}, {"measurement": "ELISA absorbance at 450 nm", "setting": "[5]", "result": 0, "unit": "A450"}, {"measurement": "ELISA absorbance at 450 nm", "setting": "[6]", "result": 0.23, "unit": "A450"}, {"measurement": "ELISA absorbance at 450 nm", "setting": "[7]", "result": 0.26, "unit": "A450"}, {"measurement": "ELISA absorbance at 450 nm", "setting": "[8]", "result": 0.2, "unit": "A450"}, {"measurement": "Kd", "setting": "[9]", "result": 114, "unit": "nM"}, {"measurement": "koff", "setting": "[9]", "result": 0.0845, "unit": "s⁻¹"}, {"measurement": "kon", "setting": "[9]", "result": 740000, "unit": "M⁻¹ s⁻¹"}]}, {"binder": "B4", "values": [{"measurement": "fold increased affinity against Fab mutant APFF (H:APFF & L:wt)", "setting": "[10]", "result": 4, "unit": "fold"}]}, {"binder": "B5", "values": [{"measurement": "Kd", "setting": "[11]", "result": "1 to 10", "unit": "nM"}]}, {"binder": "B6", "values": [{"measurement": "fold greater affinity against H:APFF & L:wt", "setting": "[10]", "result": 8, "unit": "fold"}]}, {"binder": "B7", "values": [{"measurement": "Kd", "setting": "[11]", "result": "1 to 10", "unit": "nM"}]}, {"binder": "B8", "values": [{"measurement": "fold increased binding affinity against the antibody mutants with heavy chain H:APFF ALTH", "setting": "[10]", "result": "~10", "unit": "fold"}]}, {"binder": "B9", "values": [{"measurement": "fold increased binding affinity against the antibody mutants with heavy chain H:APFF ALTH", "setting": "[10]", "result": "~10", "unit": "fold"}]}]}
